The values below come from PMC2925374, “Oligomerization of Uukuniemi virus nucleocapsid protein” (Virology Journal, 2010).

The chains are these.
B1: Uukuniemi virus nucleocapsid (N) protein, full-length wild type (pcDNA-UUKV-N) (natural protein)
chain: MAMPENWVRFAIEISDAQWEEEEIREFINLFQYQGFDAAVVLSRIFELAKKADLSRDQMLRDIRALITLHLTRGNKLSSIEKRLSEEGKKEFALLKARYQLVDKAKEAADLTLSRIAIANAGLTCRILPQVVAHTAVTRSRMESLSADYPVCMMHNAFAGLIDETLPEDSIKALVDAHRLYLLEFSRTINVKHRGMEAKEILDANDSALQAGLASSFLTPSQKRAYLLSFKLVDGNGKVNKAVQQAATVLRSLI
notes: Uukuniemi virus nucleocapsid (N) protein, 254 aa residues; No tag is mentioned; detected with a rabbit antiserum against UUKV-N; also called UUKV-N protein; wt N protein; source: COS-7, transfected (pcDNA-UUKV-N), in lysate
B2: UUKV-N protein point mutant Y33A, mammalian two-hybrid fusions (natural protein)
chain: B1 chain with Y33A
notes: Uukuniemi virus nucleocapsid (N) protein, 254 aa residues; Mutation introduced into both the DNA-BD and the DNA-AD fusion; no chain carries both domains; also called negative control mutant; source: HeLa, transfected, mammalian two-hybrid fusions
B3: UUKV-N protein point mutant W19A, mammalian two-hybrid fusions (natural protein)
chain: B1 chain with W19A
notes: Uukuniemi virus nucleocapsid (N) protein, 254 aa residues; Mutation introduced into both the DNA-BD and the DNA-AD fusion; no chain carries both domains; source: HeLa, transfected, mammalian two-hybrid fusions
B4: UUKV-N protein point mutant I14A, mammalian two-hybrid fusions (natural protein)
chain: B1 chain with I14A
notes: as for B3
B5: UUKV-N protein point mutant F27A, mammalian two-hybrid fusions (natural protein)
chain: B1 chain with F27A
notes: as for B3
B6: UUKV-N protein point mutant W7A, mammalian two-hybrid fusions (natural protein)
chain: B1 chain with W7A
notes: as for B3
B7: UUKV-N protein point mutant F10A, mammalian two-hybrid fusions (natural protein)
chain: B1 chain with F10A
notes: as for B3
B8: UUKV-N protein point mutant F31A, mammalian two-hybrid fusions (natural protein)
chain: B1 chain with F31A
notes: as for B3
B9: UUKV-N protein double mutant QQ244,245AA, mammalian two-hybrid fusions (natural protein)
chain: B1 chain with Q244A, Q245A
notes: Uukuniemi virus nucleocapsid (N) protein, 254 aa residues; source: HeLa, transfected, mammalian two-hybrid fusions
B10: UUKV-N protein point mutant R251A, mammalian two-hybrid fusions (natural protein)
chain: B1 chain with R251A
notes: as for B9
B11: UUKV-N protein point mutant I24A, mammalian two-hybrid fusions (natural protein)
chain: B1 chain with I24A
notes: as for B3

Substitutions are numbered along the chain they refer to. In names and notes the source's numbering stands. Several values for one entry are separate records, joined by “and”; a condition that tells them apart may be missing. Equal entries are not always repeated. Some results are limits rather than exact numbers.

One series deals with the molecule itself. Put plainly: cross-linking; lysates of transfected COS-7 cells (PBS pH 7.4, freeze-thawed), 0.1 or 0.5 mM BS3, 30 min at room temperature, quenched with 50 mM Tris-HCl pH 7.5; 10% SDS-PAGE, immunoblot with rabbit antiserum against UUKV-N.
On to B1, for which the “stoichiometry N” value is 2 and 3.

A further series deals with the molecule itself. Put plainly: two-hybrid; mammalian two-hybrid in HeLa cells: GAL4 DNA-BD (pM) and VP16 DNA-AD (pVP) fusions, pG5luc firefly luciferase normalised to Renilla luciferase, 24 h post-transfection; percent of the wt N-N interaction.
As for B2, the “M2H % of interaction” value is above 100%.
On the same count and under the same terms, then B3, with above 100%; and B4, with 60 ± 18%; and B5, with above 100%.
As to B6, the “M2H % of interaction” value was above 100%.
On the same count and under the same terms, the same measure for B7: 34 ± 4%.
As for B8, the “M2H % of interaction” value was determined as 23 ± 5%.
As for B9, the “M2H % of interaction” value is above 100%.
On to B10, for which the “M2H % of interaction” value amounted to 96 ± 11%.
Same read-out and setting: the same measure for B11: 56 ± 12%.
